The text below walks through data of US20260234269A1 (TRUEBINDING, published 2026).

Where only a bound is given, the exact number is not on record here.

Experiment [1] concerns the target T1, Human Galectin-3 protein (Acro Biosystems, GA3-H5129) (human, UniProt P17931 2-250).
T1 construct: Bought protein; also called hGal3; Gal3; not shown: linker-spaced 6-histidine tag
In words: ELISA, hGal3 coated, antibody 3 ug/mL, competitor hTIM3. On the technique in general: In an ELISA, binding on a coated surface is turned into a signal by an enzyme label.

The target of experiment [2] is T1, Human Galectin-3 protein (Acro …). In words: SPR Biacore T200, antibody captured, Galectin-3 analyte. Background: Surface plasmon resonance follows binding to a sensor surface in real time, without labels.
Experiment [3] has the same target. In words: ELISA titration, blocking of GAL3-TIM3; competitor TIM3.
The next experiment has as its target T2, hGal3 peptide 4 (human).
T2 peptide: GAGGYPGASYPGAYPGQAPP
In words: peptide ELISA, 20-mer library (Epitope Mapping).

The target in a further experiment is T3, hGal3 peptide 6 (human).
T3 peptide: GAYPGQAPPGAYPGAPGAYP
In words: peptide ELISA, 20-mer library (Epitope Mapping).

For another experiment, the target named is T4, hGal3 peptide 7 (human).
T4 peptide: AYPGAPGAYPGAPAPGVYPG
In words: peptide ELISA, 20-mer library (Epitope Mapping).

T1 sequence (P17931 2-250): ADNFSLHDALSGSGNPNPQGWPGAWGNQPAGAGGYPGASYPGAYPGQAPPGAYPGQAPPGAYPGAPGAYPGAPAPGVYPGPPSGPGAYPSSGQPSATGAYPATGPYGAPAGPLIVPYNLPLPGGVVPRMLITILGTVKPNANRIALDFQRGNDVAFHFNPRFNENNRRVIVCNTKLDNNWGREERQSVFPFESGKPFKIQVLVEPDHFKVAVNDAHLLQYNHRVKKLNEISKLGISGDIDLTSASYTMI

B1: 846T.1H2 (antibody, V domains shown)
VH: QIQLVQSGPELKKPGETVKISCKASGYTFTNYGMNWVKQAPGKGLKWMGWINTNTGEPTYAEEFKGRFAFSLETSASTAYLQINNLKNEDTATYFCATGGGNWDFDYWGQGTTLTVSS
VL: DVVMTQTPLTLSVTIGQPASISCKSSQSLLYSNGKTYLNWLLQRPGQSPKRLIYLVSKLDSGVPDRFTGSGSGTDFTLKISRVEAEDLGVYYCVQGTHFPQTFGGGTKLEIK
notes: murine antibody
Take B1: in experiment [1], the “GAL3-TIM3 Blocking @ 3 ug/mL” value turned out to be 81%. Moreover, the Kd in experiment [2] worked out at 2.82 nM.

B2: IMT001-4 (antibody, IgG4, V domains shown)
VH: QVQLVQSGSELKKPGASVKVSCKASGYTFTNYGMNWVRQAPGQGLKWMGWINTNTGEPTYVEEFTGRFVFSLETSVSTAYLQISSLKAEDTAVYFCAPYDNFFAYWGQGTTVTVSS
VL: DIVLTQSPLSLPVTPGEPASISCRSSKSLLYKDGKTYLNWFLQKPGQSPQLLIYLMSTHASGVPDRFSGSGSGTDFTLKISRVEAEDVGVYYCQQLVDYPLTFGGGTKLEIKR
notes: also called HuIMT001-4
On to B2, for which the IC50 in experiment [3] came to 5.6 nM.

B3: 4G2.2G6 (antibody, V domains shown)
VH: QIQLVQSGPDLKKPGETVKISCKASGYTFTTYVMSWVKQAPGKDLKWMGWINTHSGVPTYADDFKGRFDFSLETSANTAFLQINNLKNEDTATYFCTRDGNDGDAMDNWGQGTSVTVSS
VL: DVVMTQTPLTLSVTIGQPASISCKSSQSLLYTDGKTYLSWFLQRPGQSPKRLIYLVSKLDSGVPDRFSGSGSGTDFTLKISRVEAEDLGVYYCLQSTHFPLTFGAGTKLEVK
notes: murine antibody
Turning to B3, in the experiment with hGal3 peptide 4, the binding result is recorded as “binds”. Further, in experiment [1], the “GAL3-TIM3 Blocking @ 3 ug/mL” value was 48%. Besides, the Kd in experiment [2] was < 1 nM.

B4: 2D10.2B2 (antibody, V domains shown)
VH: QVQLQQSGPELVKPGASVKISCKASGYTFTDYYINWVKQRPGQGLEWIGWIYPGSNDTKYNEKFKGKATLTVDTSSSTAYMQLGSLTSEDSAVYFCANYFGCSGWFFDVWGTGTTVTVSS
VL: DIVMTQAAFSNPVTLGTSASISCRSSKSLLHSDGITYLYWYLQRPGQSPQLLIYRMSNLASGVPDRFSGSGSGTDFTLRISRVEAEDVGVYYCAQMIEFPLTFGAGTILELK
notes: murine antibody
With B4, the binding result with hGal3 peptide 6 is on record as “binds”. Also, the “GAL3-TIM3 Blocking @ 3 ug/mL” value in experiment [1] stood at 86%. In experiment [2], this molecule showed a Kd of 0.753 nM.

B5: 4A11.2B5 (antibody, V domains shown)
VH: QVQLQQSGPELVKPGASVKISCKASGYSFTNYYIHWVKQRPGQGLEWIGWIYPGSGNTNYNEKFKGKATLTADTSSSTTNMQLSSLTSEDSAVYYCSTAPGGFDVWGSGTTVTVSS
VL: DIVMTQAAFSNPVTLGTSASISCRSSKSLLHSDGITYLYWYLQRPGQSPQLLIYRMSNLASGVPDRFSGSGSGTDFTLRISRVEAEDVGVYYCAQMLEFPLTFGAGTKLELK
notes: murine antibody; parent of IMT006-1 and IMT006-5
As to B5, the binding result with hGal3 peptide 6 was “binds”. Further, the “GAL3-TIM3 Blocking @ 3 ug/mL” value in experiment [1] was 48%. In experiment [2], this molecule yielded a Kd of 5.22 nM.

B6: 846.2H3 (antibody, V domains shown)
VH: QIQLVQSGPELKKPGETVKISCKASGYTFTNYGMNWVKQAPGKGLKWMGWINTYTGEPSYADDFKGRFAFSLETSASTAYLQINNLKNEDMATYFCARWGGYDGDYYAMDYWGQGTSVTVSS
VL: NIMMTQSPSSLAVSAGEKVTMSCKSSQSVLYSSNQKNYLAWYQQKPGQSPKLLIYWASTRESGVPDRFTGSGSGTDFTLTISSVQPEDLAVYYCHQYLSSLTFGAGTKLELK
notes: murine antibody
Take B6: the “GAL3-TIM3 Blocking @ 3 ug/mL” value in experiment [1] is 100%. For the same molecule, in experiment [2], the Kd was determined as 10.2 nM.

B7: 846.1F5 (antibody, V domains shown)
VH: QIQLVQSGPELKKPGETVKISCKASGYTFTNYGMNWVKQAPGKGLKWMGWINTYTGEPSYADDFKGRFAFSLETSASTAYLQINNLKNEDMATYFCARWGGYDGDYYAMDYWGQGTSVTVSS
VL: NIMMTQSPSSLAVSAGEKVTMSCKSSQSVLYSSNQKNYLAWYQQKPGQSPKLLIYWASTRESGVPDRFTGSGSGTDFTLTISSVQPEDLAVYYCHQYLSSLTFGAGTKLELK
notes: murine antibody
For B7, in experiment [1], the “GAL3-TIM3 Blocking @ 3 ug/mL” value was found to be 90%. This molecule also displayed a Kd in experiment [2] of 2.73 nM.

B8: 3B11.2G2 (antibody, V domains shown)
VH: QIQLVQSGPELKKPGETVKISCKTSGYKFKTYVMSWVKQAPGKALKWMGWINTYSGVPTYADDFKGRFAFSLETSASTAYLEIINLKNEDTATYFCARDGNYGDPMDYWGQGTSVTVSS
VL: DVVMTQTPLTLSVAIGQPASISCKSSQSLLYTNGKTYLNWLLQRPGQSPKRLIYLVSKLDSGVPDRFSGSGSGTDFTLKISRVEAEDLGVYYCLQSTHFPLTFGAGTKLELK
notes: murine antibody; also called 3B11.2D2
Turning to B8, the binding result with hGal3 peptide 4 and with hGal3 peptide 6 was “binds” throughout. Also, the “GAL3-TIM3 Blocking @ 3 ug/mL” value in experiment [1] worked out at 33%. In addition, the Kd in experiment [2] is < 1 nM.

B9: 13A12.2E5 (antibody, V domains shown)
VH: QIQLVQSGPELKKPGETVKISCKTSGYKFKTYVMSWVKQAPGKALKWMGWINTYSGVPTYADDFKGRFAFSLETSASTAYLEIINLKNEDTATYFCARDGNYGDPMDYWGQGTSVTVSS
VL: DVVMTQTPLTLSVAIGQPASISCKSSQSLLYTNGKTYLNWLLQRPGQSPKRLIYLLSKLDSGVPDRFSASGSGTDFTLKISRVEAEDLGVYYCLQSTHFPLTFGAGTKLEMK
notes: murine antibody
B9: the binding result with hGal3 peptide 4 and with hGal3 peptide 6 was “binds” throughout. Moreover, the “GAL3-TIM3 Blocking @ 3 ug/mL” value in experiment [1] was 35%. The molecule also registered a Kd in experiment [2] of 8.2 nM.

B10: IMT006-5 (antibody, V domains shown)
VH: QVQLVQSGAEVKKPGASVKVSCKASGYSFTNYYMHWVRQAPGQRLEWMGWIYPGSGNTNYNEKFQGRVTITADTSASTAYMELSSLRSEDTAVYYCSTAPGGFDVWGQGTTVTVSS
VL: DIVMTQTPLSLSVTPGQPASISCKSSKSLLHSDGITYLYWYLQKPGQSPQLLIYRMSNLASGVPDRFSGSGSGTDFTLKISRVEAEDVGVYYCAQMLEFPLTFGQGTKLEIKR
notes: humanized antibody derived from 4A11.2B5
The molecule B10 registered an IC50 in experiment [3] of 4.1 nM.

B11: IMT006-1 (antibody, V domains shown)
VH: QVQLVQSGAEVKKPGASVKVSCKASGYSFTNYYMHWVRQAPGQGLEWMGWIYPGSGNTNYNEKFQGRVTMTADTSISTAYMELSRLRSDDTAVYYCSTAPGGFDVWGQGTTVTVSS
VL: DIVMTQTPLSLSVTPGQPASISCKSSKSLLHSDGITYLYWYLQKPGQSPQLLIYRMSNLASGVPDRFSGSGSGTDFTLKISRVEAEDVGVYYCAQMLEFPLTFGQGTKLEIKR
notes: humanized antibody derived from 4A11.2B5; also called HuIMT006-1
Consider B11, for which the IC50 in experiment [3] was 26.5 nM.

B12: IMT006-8 (antibody, V domains shown)
VH: QVQLVQSGAEVKKPGASVKVSCKASGYSFTNYYIHWVRQAPGQRLEWMGWIYPGSGNTNYNEKFQGRVTLTADTSASTTYMELSSLRSEDTAVYYCSTAPGGFDVWGQGTTVTVSS
VL: DIVMTQSPLSLPVTPGEPASISCRSSKSLLHSDGITYLYWYLQKPGQSPQLLIYRMSNLASGVPDRFSGSGSGTDFTLKISRVEAEDVGVYYCAQMLEFPLTFGQGTKLEIKR
notes: humanized antibody
B12 yielded an IC50 in experiment [3] of 2.8 nM.

B13: 13H12.2F8 (antibody, V domains shown)
VH: QIQLVQSGPELKKPGETVKISCKASGYTFTTYGMSWVKQAPGKGLKWMGWINTYSGVPTYADDFKGRFAFSLETSASTAYLQINNLKNEDTATYFCAVPYEYDGAYWGQGTLVTVSA
VL: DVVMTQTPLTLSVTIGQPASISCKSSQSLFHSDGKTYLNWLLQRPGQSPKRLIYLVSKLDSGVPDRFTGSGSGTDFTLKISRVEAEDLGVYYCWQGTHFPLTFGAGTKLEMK
notes: murine antibody
On to B13, for which the binding result with hGal3 peptide 6 and with hGal3 peptide 7 was “binds” throughout. Also, the “GAL3-TIM3 Blocking @ 3 ug/mL” value in experiment [1] was 57%. The molecule also came in with a Kd in experiment [2] of 6.07 nM.

B14: 14H10.2C9 (antibody, V domains shown)
VH: QIQLVQSGPELKKPGETVKISCKASGYTFTTYGMGWVKQAPGKDLKWMGWINTYSGVPTYADDFKGRFAFSLETSASTAYLQISNLKNEDTATYFCSTPYEYDGAYWGQGTLVTVSA
VL: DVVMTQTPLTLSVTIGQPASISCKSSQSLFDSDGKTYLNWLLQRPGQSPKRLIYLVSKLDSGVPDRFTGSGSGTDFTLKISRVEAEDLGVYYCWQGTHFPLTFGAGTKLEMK
notes: murine antibody
For the molecule B14, the binding result with hGal3 peptide 6 and with hGal3 peptide 7 was “binds” each time. The “GAL3-TIM3 Blocking @ 3 ug/mL” value in experiment [1] came out at 44%. Moreover, in experiment [2], binding was put at a Kd of 0.562 nM.

B15: 19D9.2E5 (antibody, V domains shown)
VH: QIQLVQSGPELKKPGETVKISCKASGYTFTTYGMGWVKQAPGKGLKWMGWINTYSGVPTYADDFKGRFAFSLETSTSTAYLQINNLKNEDMATYFCATPYEYDGAYWGQGTLVTVSA
VL: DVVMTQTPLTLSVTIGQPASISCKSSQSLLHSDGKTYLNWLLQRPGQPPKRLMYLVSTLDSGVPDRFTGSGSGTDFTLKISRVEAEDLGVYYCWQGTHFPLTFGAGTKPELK
notes: murine antibody
For the molecule B15, the binding result with hGal3 peptide 6 and with hGal3 peptide 7 was “binds” each time. The “GAL3-TIM3 Blocking @ 3 ug/mL” value in experiment [1] was found to be 34%. The Kd in experiment [2] was < 1 nM.

B16: 19B5.2E6 (antibody, V domains shown)
VH: QIQLVQSGPELKKPGETVKISCKASGYTFTTYAMSWVKQAPGKGLKWMGWINTYSGVPTYADDLKGRFAFSLETSASTAYLQINNLKNEDTATYFCARGPYAMDYWGQGTSVTVSS
VL: DIQMTQTTSSLSASLGDRVTISCSASQGINNYLNWYQQKPDGTVKLLIYYASSLHSGVPSRFSGSGSGTDYSLTISNLEPEDIATYYCQQYSQVPYTFGSGTKLEIK
notes: murine antibody
In the case of B16, the “GAL3-TIM3 Blocking @ 3 ug/mL” value in experiment [1] was 61%. Moreover, in experiment [2], the Kd is < 1 nM.

B17: 23H9.2E4 (antibody, V domains shown)
VH: QIQLVQSGPELKKPGETVKISCKASGYTFTTYAMSWVKQAPGKGLKWMGWINTYSGVPTYADDLKGRFAFSLETSASTAYLQINNLKNEDTATYFCARGPYAMDYWGQGTSVTVSS
VL: DIQMTQTTSSLSASLGDRVTISCSASQGINNYLNWYQQKPDGTVKLLIYYASSLHSGVPSRFSGSGSGTDYSLTISNLEPEDIATYYCQQYSQVPYTFGSGTKLEIK
notes: murine antibody
In the case of B17, the “GAL3-TIM3 Blocking @ 3 ug/mL” value in experiment [1] stood at 80%. Also, in experiment [2], the equilibrium dissociation constant (Kd) worked out at 4.26 nM.

B18: 20H5.A3 (antibody, V domains shown)
VH: QIQLVQSGPELKKPGESVKISCKASGYAFTTYGMSWVQQAPGKGLKWMGWVNTYSGVPTCADDFKGRFAFSLETSASTAYLQINNLRNEDTATYFCARGPYAMDYWGQGTSVTVSS
VL: DIQMTQTTSSLSASLGDRVTINCSASQDISNYLNWYQQKPDGTVKLLIYYTSSLLSGVPSRFSGSGSGTDYSLTISNLEPEDIATYFCQQYSKLPYTFGSGTHLEIK
notes: murine antibody
For B18, the “GAL3-TIM3 Blocking @ 3 ug/mL” value in experiment [1] was 81%. The molecule also displayed a Kd in experiment [2] of 3.95 nM.

B19: 6H6.2D6 (antibody, V domains shown)
VH: QIQLVQSGPELKKPGETVKISCKASGYTFTTYGMSWVKQAPGKGLKWMAWINTYSGVPTYADDFKGRFAFSLETSASTAYLQINNLTNEDTATYFCARGPYAMDYWGQGTSVTVSS
VL: DIQMTQTTSSLSASLGDRVTISCSASQGISNYLNWYQQKPDGTVKLLIYYTSSLHSGVPSRFSGSGSGTDYSLTISNLEPEDIATYYCQQYSELPYTFGSGTKLEIK
notes: murine antibody
Turning to B19, the “GAL3-TIM3 Blocking @ 3 ug/mL” value in experiment [1] was determined as 82%. This molecule also gave a Kd in experiment [2] of 4.86 nM.

The term Kd denotes the equilibrium constant for the complex coming apart. For orientation: IC50 means the point on the concentration scale where inhibition reaches its midpoint. A lower IC50 goes with inhibition by little substance.
